Results: the Human Domainome abundance scans (Beltran et al. 2025)

B1: Membrane-associated guanylate kinase, WW and PDZ domain-containing protein 3, residues 287 to 329; numbered along this chain, Q5TCQ9 (parent)
chain: MRDETLEPLPKNWEMAYTDTGMIYFIDHNTKTTTWLDPRLCKK

Variants of: B1
Experiment: abundance fitness (aPCA) (normalised: wild type 0, dead -1); higher = more abundant; growth selection in yeast, the domain comes from the species named
Details: Homo sapiens

Abundance fitness, by site and new letter:
T33: V -0.298, C -0.142, G -0.551, K -0.388, R -0.351, H -0.535, S -0.187, N -0.418, Q -0.417, F -0.584, L -0.496, P -0.684, M -0.315, Y -0.447, I -0.519, D -0.648, E -0.442, W -0.445
T34: I -1.02, P -0.906, S -0.106, L -1.21, W -0.743, N -0.661, Y -0.982, E -0.677, Q -0.28, G -0.667, K -0.719, M -0.62, C -0.64, V -0.924, A -0.632, R -0.71
W35: S -0.199, P -0.34, M -0.16, G -0.341, E -0.361, H -0.447, V -0.291, I -0.257, D -0.359, R -0.266, Y 0.126, A -0.248, F 0.074, T -0.104, Q -0.232, N -0.339, L -0.146, C -0.222
N29: P -0.525, I -0.194, F -0.152, A -0.074, E -0.03, C -0.132, M -0.142, K -0.105, Q -0.089, R -0.078, V -0.094, G -0.069, T -0.051, S -0.103, D -0.141, H -0.248
D27: W -1.07, S -0.644, T -1.08, G -0.903, R -1.03, A -0.789, N -0.238, V -1.01, C -0.403, P -1.12, F -0.716, L -1.11, Y -0.119, E -0.266, K -0.98, M -0.766
M15: Y -0.186, F -0.189, E -0.062, S -0.047, G -0.334, D -0.379, H -0.156, L -0.066, I 0.036, Q -0.007, W -0.283, R -0.013, P -0.11, A -0.043, V -0.093, T -0.039, C -0.097, K -0.037
T20: C -0.077, N -0.132, P -0.48, I -0.24, G -0.025, E 0.017, W -0.328, Y -0.256, S -0.023, M -0.153, D -0.054, H -0.345
G21: T -0.689, L -0.67, A -0.312, S -0.487, M -0.46, Q -0.222, K -0.172, R -0.237, W -0.782, P -0.682, V -1.18, D -0.241, E -0.215
I23: L -0.01, A 0.053, P -0.001, W -0.277, E 0.028, S -0.068, V 0.03, N -0.12, F -0.162, Q 0.042, T -0.006, G -0.087, D -0.32, M -0.006, C 0.002
M22: R -0.043, Q 0.096, K 0.075, P -0.62, D 0.084, L -0.043, T -0.005, Y 0.004, A 0.081, H -0.137, E 0.144, S 0.199, C -0.028, G 0.006, V -0.025
T32: E -0.328, P -0.879, D -0.47, I -0.11, M -0.071, K -0.303, Y -0.417, Q -0.137, W -0.52, N -0.215
